Source: patent US20240317826

B1: HIV-1NL4-3 integrase (IN), wild type, in virus / GagPol (protein)
chain: FLDGIDKAQEEHEKYHSNWRAMASDFNLPPVVAKEIVASCDKCQLKGEAMHGQVDCSPGIWQLDCTHLEGKVILVAVHVASGYIEAEVIPAETGQETAYFLLKLAGRWPVKTVHTDNGSNFTSTTVKAACWWAGIKQEFGIPYNPQSQGVIESMNKELKKIIGQVRDQAEHLKTAVQMAVFIHNFKRKGGIGGYSAGERIVDIIATDIQTKELQKQITKIQNFRVYYRDSRDPVWKGPAKLLWKGEGAVVIQDNSDIKVVPRRKAKIIRDYGKQMAGDDCVASRQDED
B2: HIV-1NL4-3 integrase W235E, in virus (protein)
chain: FLDGIDKAQEEHEKYHSNWRAMASDFNLPPVVAKEIVASCDKCQLKGEAMHGQVDCSPGIWQLDCTHLEGKVILVAVHVASGYIEAEVIPAETGQETAYFLLKLAGRWPVKTVHTDNGSNFTSTTVKAACWWAGIKQEFGIPYNPQSQGVIESMNKELKKIIGQVRDQAEHLKTAVQMAVFIHNFKRKGGIGGYSAGERIVDIIATDIQTKELQKQITKIQNFRVYYRDSRDPVEKGPAKLLWKGEGAVVIQDNSDIKVVPRRKAKIIRDYGKQMAGDDCVASRQDED
B3: HIV-1NL4-3 integrase R228A, in virus (protein)
chain: FLDGIDKAQEEHEKYHSNWRAMASDFNLPPVVAKEIVASCDKCQLKGEAMHGQVDCSPGIWQLDCTHLEGKVILVAVHVASGYIEAEVIPAETGQETAYFLLKLAGRWPVKTVHTDNGSNFTSTTVKAACWWAGIKQEFGIPYNPQSQGVIESMNKELKKIIGQVRDQAEHLKTAVQMAVFIHNFKRKGGIGGYSAGERIVDIIATDIQTKELQKQITKIQNFRVYYADSRDPVWKGPAKLLWKGEGAVVIQDNSDIKVVPRRKAKIIRDYGKQMAGDDCVASRQDED

Experiments:
[1] = molecular target: INI1 of 293 T producer cells (endogenous), Q12824

Row | Protein | INI1 incorporation into HIV-1 virions (Western analysis of concentrated virions) (SP38 stapled peptide) | INI1 incorporation into HIV-1 virions (Western blot of concentrated virions) [1]
1 | B1 | INI1 was not incorporated into HIV-1 virions produced in the presence of SP38 | wild type virus (FIG. 18c lane 2) ... incorporated INI1
2 | B2 | – | but not the W235E and R228A mutant virions incorporated INI1
3 | B3 | – | but not the W235E and R228A mutant virions incorporated INI1
